Measured values reported in patent US20180127505A1, “HUMANIZED ANTI-AXL ANTIBODIES AND THEIR CONJUGATES” (MEDIMMUNE LIMITED, priority 2015, published 2018).
Changes are numbered by the printed parent chain.

B1: Ab2: anti-AXL antibody, VH SEQ ID NO. 2, VL SEQ ID NO. 5, constant region derived from human antibodies (antibody, V domains shown)
VH: MGFKMESQFQVFVFVFLWLSGVDGQVQLVESGGGVVQPGRSLRLSCAASGFTFSSYGMSVRQAPGKGLEWVATISSGGSYTYYPDSVKGRFTISRDNSKNTLYLQMNSLRAEDTAVYYCARHPIYYTYDDTMDYWGQGTTVTVSS
VL: MGFKMESQFQVFVFVFLWLSGVDGEIVLTQSPATLSLSPGERATLSCSASSSVSSGNFHWYQQKPGLAPRLLIYRTSNLASGIPDRFSGSGSGTDFTLTISRLEPEDFAVYYCQQWSGYPWTFGPGTKVDIK
modifications: human constant regions; Synthetic heavy chain variable region 1H12RHA; Synthetic light chain variable region 1H12RKA
notes: 5, constant region derived from human antibodies
B2: Ab5: anti-AXL antibody, VH SEQ ID NO. 3, VL SEQ ID NO. 7, constant region derived from human antibodies (antibody, V domains shown)
VH: MGFKMESQFQVFVFVFLWLSGVDGEVQLVESGGGLVQPGGSLRLSCAASGFTFSSYGMSWVRQAPGKGLEWVATISSGGSYTYYPDSVKGRFTISRDNAKNSLYLQMNSLRAEDTAVYYCARHPIYYTYDDTMDYWGQGTLVTVSS
VL: B1 VL with A33G, D85A, R102S, P125G, V129L, D130E
modifications: human constant regions; Synthetic heavy chain variable region 1H12RHB; Synthetic light chain variable region 1H12RKB
notes: 7, constant region derived from human antibodies
B3: Ab4: anti-AXL antibody, VH SEQ ID NO. 3, VL SEQ ID NO. 5, constant region derived from human antibodies (antibody, V domains shown)
VH: B2 VH
VL: B1 VL
modifications: human constant regions; Synthetic heavy chain variable region 1H12RHB; Synthetic light chain variable region 1H12RKA
notes: as for B1
B4: Ab3: anti-AXL antibody, VH SEQ ID NO. 2, VL SEQ ID NO. 7, constant region derived from human antibodies (antibody, V domains shown)
VH: B1 VH
VL: B1 VL with A33G, D85A, R102S, P125G, V129L, D130E
modifications: human constant regions; Synthetic heavy chain variable region 1H12RHA; Synthetic light chain variable region 1H12RKB
notes: as for B2
B5: Ab1 (antibody, V domains shown)
VH: EVQLVESGGDLVKPGGSLKLSCAASGFTFSSYGMSWVRQTPDKRLEWVATISSGGSYTYYPDSVKGRFTISRDNAKNTLYLQMSSLKSEDTAMYYCARHPIYYTYDDTMDYWGQGTSVTVSS
VL: ENVLTQSPAIMAASPGEKVTMTCSASSSVSSGNFHWYQQKPGTSPKLWIYRTSNLASGVPARFSGSGSGTSYSLTISSMEAEDAATYYCQQWSGYPWTFGGGTKLEIK

Test: Protein thermal shift (Tm)
Type: physicochemical
Details: 0.5 mg/mL in PBS, HEK293F expression product
Experimental: Protocol 6: Protein Thermal Shift Protocol
• 96 well optical plate semi-skirted (Starlab cat.L1402-9700). • Protein thermal shift dye kit (Life Technologies cat.446148). • Microamp optical adhesive film (Applied Biosystems) • 7500 Real-Time PCR System (Life Technologies) • Test items: Antibodies from Evitria and Spirogen • Protein thermal shift v1.2 software (Life Technologies)
Protein thermal shift dye (2.5 μL 1:1000 dilution) was added to sample proteins (17.5 μL of 0.5 mg/mL in PBS) in a 96 well optical plate and mixed thoroughly. Every sample was done in quadruplicate. The plate was sealed with a optical adhesive film and bubbles in the wells were removed by centrifugation 1 min at 500 g, then placed on ice. The sealed plate was introduced in the 7500 Real-Time PCR System and subsequently the experiment was set up as follows:
Data analysis and derivation of Tm data were done using the software following the manufacturers instructions.

Row | Molecule | Tm [°C]
1 | B1 | 59.71
2 | B2 | 63.06
3 | B3 | 60.32
4 | B4 | 62.05
5 | B5 | 69.52
